Source: US20080070264A1, “Intracellular Signaling-Induced Ret-Independent Gdnf Receptor-Effected Morphological Changes” (JPMORGAN CHASE BANK N.A., priority 2003, published 2008)
Entries after “also recorded” stand apart in the source; their conditions may differ.

What was measured:
MET = MET activation in GFRα1-transfected COS7 cells; type: cell-based
Src-type kinases = assay: Src activation (Tyr418 phosphorylation) in MDCK cells; type: cell-based, dog; conditions: GFRα1-expressing and RET/GFRα1-expressing MDCK cells
Protocol: FIG. 7A: Dose-dependent Src-kinase activation by GDNF in GFRα1-expressing and RET/GFRα1-expressing MDCK cells. The activation of Src-type kinases was observed after 15 minutes. The concentrations of GDNF are indicated. The numbers below the lane reflect the fold of increase in phosphorylation of Tyr418 of Src. The lower panels show the re-probing of the same filter with anti-Src antibodies. The results are representative of three independent experiments.
To analyze Src activation, subconfluent GFRα1- and RET/GFRα1-expressing MDCK cell cultures were starved for 24 h before induction in serum-free MEM. After 10 min incubation at 37° C. with 50 ng/ml GDNF (Cephalon Inc. or R&D Systems, Inc.) or 50 ng/ml HGF (Sigma) cells were lysed in lysis buffer supplemented with 1 mM Na-orthovanadate and analyzed by Western blotting as described (Lindahl et al., 2001). The Western blots were probed with the indicated antibodies and developed with ECL reagents (Amersham Pharmacia Biotech). Antibodies used included anti-Y^418 Src and anti-Src (BioSource International).
Possible candidates for messengers between GDNF-GFRα1 complex and MET are Src family kinases. […]

RET = molecular target: T1, RET (UniProt P07949+Q62997); assay: RET phosphorylation in RET/GFRα1-expressing MDCK cells; type: cell-based, dog
T1 construct: expressed in transfected cells
T1 sequence (P07949 29-1114): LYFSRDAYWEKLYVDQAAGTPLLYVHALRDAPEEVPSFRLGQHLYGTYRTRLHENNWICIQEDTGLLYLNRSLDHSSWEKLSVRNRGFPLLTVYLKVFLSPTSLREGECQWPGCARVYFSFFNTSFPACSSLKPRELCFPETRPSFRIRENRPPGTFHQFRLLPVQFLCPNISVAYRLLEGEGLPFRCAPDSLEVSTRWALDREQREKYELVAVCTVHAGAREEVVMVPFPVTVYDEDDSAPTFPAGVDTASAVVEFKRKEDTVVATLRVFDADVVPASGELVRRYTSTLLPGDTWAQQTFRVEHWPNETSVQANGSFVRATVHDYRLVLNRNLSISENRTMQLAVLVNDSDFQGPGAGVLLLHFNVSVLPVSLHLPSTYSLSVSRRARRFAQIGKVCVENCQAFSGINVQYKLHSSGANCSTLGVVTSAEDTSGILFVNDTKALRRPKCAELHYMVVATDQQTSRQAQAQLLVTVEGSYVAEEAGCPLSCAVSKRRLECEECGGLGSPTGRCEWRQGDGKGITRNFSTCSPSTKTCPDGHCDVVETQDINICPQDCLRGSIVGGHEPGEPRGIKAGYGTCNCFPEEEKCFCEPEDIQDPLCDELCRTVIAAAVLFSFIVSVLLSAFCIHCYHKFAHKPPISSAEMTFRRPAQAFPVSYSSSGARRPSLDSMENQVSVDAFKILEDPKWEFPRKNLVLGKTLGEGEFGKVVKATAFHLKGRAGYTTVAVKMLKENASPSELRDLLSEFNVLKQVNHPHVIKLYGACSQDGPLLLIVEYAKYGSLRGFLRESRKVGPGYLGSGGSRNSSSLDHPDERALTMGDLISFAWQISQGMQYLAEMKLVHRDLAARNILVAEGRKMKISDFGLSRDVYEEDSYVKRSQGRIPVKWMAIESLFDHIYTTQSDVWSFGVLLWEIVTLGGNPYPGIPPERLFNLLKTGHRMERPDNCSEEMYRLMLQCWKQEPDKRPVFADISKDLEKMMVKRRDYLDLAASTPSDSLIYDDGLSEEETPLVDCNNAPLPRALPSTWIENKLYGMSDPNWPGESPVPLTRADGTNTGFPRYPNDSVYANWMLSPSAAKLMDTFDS
T1 sequence (Q62997 25-430 limits assumed): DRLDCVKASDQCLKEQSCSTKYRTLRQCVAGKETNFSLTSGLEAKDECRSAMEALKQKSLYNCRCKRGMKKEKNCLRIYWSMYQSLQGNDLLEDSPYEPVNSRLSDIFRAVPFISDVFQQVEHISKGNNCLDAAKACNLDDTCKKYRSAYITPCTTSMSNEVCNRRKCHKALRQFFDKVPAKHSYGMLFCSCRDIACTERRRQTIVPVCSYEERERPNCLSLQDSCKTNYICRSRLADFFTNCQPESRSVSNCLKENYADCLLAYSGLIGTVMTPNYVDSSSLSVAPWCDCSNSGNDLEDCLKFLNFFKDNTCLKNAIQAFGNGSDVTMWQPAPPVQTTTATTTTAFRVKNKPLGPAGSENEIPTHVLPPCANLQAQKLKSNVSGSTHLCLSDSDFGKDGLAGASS
Protocol: FIG. 4D: Dose-dependent activation of RET by GDNF in RET/GFRα1-expressing MDCK cells. […]. […] The numbers below the lanes indicate the fold of induction of RET tyrosine kinase. IP, immunoprecipitation; WB, Western blotting; P-tyr, phospho-tyrosine. The results are representative of three independent experiments.
To detect MET activation, GFRα1- and RET/GFRα1-expressing MDCK or SHEP cells were starved overnight in MEM or RPMI 1640 with 1% FCS, respectively, and in serum-free medium for 2 h prior the induction. After 15 min incubation at 37° C. with GDNF (at indicated concentrations) or with 50 ng/ml HGF, cells were lysed as described. Cleared cell lysates were incubated with anti-MET antibodies (Santa Cruz Biotechnologies, Inc.) overnight at 4° C. Immunoprecipitates were collected with protein A-SEPHAROSE (Amersham Pharmacia Biotech), washed, separated by SDS-PAGE and transferred to HYBOND-ECL membranes. Membranes were immunoblotted with anti-phospho-tyrosine antibodies (Upstate Group Inc.) or anti-MET antibodies.
The above procedure was also followed to detect RET phosphorylation in RET/GFRα1-expressing MDCK, however, for these experiments, anti-RET antibodies (Santa Cruz Biotechnologies, Inc.) were used for the immunoprecipitation and immunoblotting.

wild-type MDCK cells = assay: Branching tubule formation assay in 3-D collagen gel; type: cell-based, dog
Protocol: (§1) From the total amount of cysts in the field, the percentage of cysts with long branches was calculated. Only branches with lengths of more than two cyst diameters were counted.
(§2) Trypsinized cells were mixed 1:3 with collagen type I solution and plated. MEM with 10% FCS was overlaid on the gels with or without GDNF (Cephalon Inc. or R&D Systems, Inc.) or 50 ng/ml HGF. Cells in collagen were cultured for 3 days; GDNF-containing medium was changed daily. For quantification, cells were cultured for 3 days, fixed by 3% glutaraldehyde in PBS and counted under a light microscope.
(§3) To avoid the effect of possible contamination of GDNF preparation, recombinant GDNF from two different sources were tested. One tested GDNF was expressed in baculovirus-infected insect cells (Cephalon Inc.), the other was expressed in mouse myeloma cell line NSO (R&D Systems, Inc.).

[1] = tested on: GFRα1-expressing MDCK cells; assay: as above; type: cell-based, dog
Protocol: as §1
(§4) FIG. 2C: Dose-dependence of GDNF-induced branching of GFRα1- and RET/GFRα1-expressing MDCK cells. GDNF concentrations are per ml (x-axis). Results are reported as fold of branching cysts count over the non-induced control. Means±standard errors of the mean of five to eight counted fields are shown. The results are representative of five (A and B) and three (C) independent experiments, p<0.001.
as §2, §3

[2] = tested on: RET/GFRα1-expressing MDCK cells; assay: as above; type: cell-based, dog
Protocol: as §1, §4, §2, §3

[3] = tested on: ret −/−, ret +/− and ret +/+ kidney explants; assay: Ureteric branching in cultured E11 urogenital block explants; design: species or system mouse
Protocol: FIG. 8A-FIG. 8D: Urogenital blocks including the Wolffian duct (wd), mesonephros (meso) and metanephros (meta) were dissected from E11 ret −/− (panels A, B), ret +/− (panel C) and ret +/+ (panel D) mouse embryos. The two urogenital blocks from the embryos were separately cultured for 4 days. One side was cultured without GDNF (panels A, C, D) and the other side with 50 ng/ml of GDNF (panel B). Urogenital block explants were fixed and immunostained with pan-cytokeratin antibodies. Scale bar: 200 μm.
FIG. 8E: The number of ureteric branches of ret −/−, ret +/− and ret +/+ kidneys with or without GDNF supplementation. Numbers in parenthesis indicate the kidney explants counted. […] Each result represents the mean±SEM (n=5).
To analyze the possible role of RET-independent, GFRα1-mediated signaling in ureteric budding and branching during nephrogenesis, the ability of exogenous GDNF to induce ureteric budding or sustain its branching in ret-deficient mice was tested. E11 ret −/− urogenital blocks including kidney rudiments were cultured for 4 days with or without 50 ng/ml of GDNF (FIG. 8). […] Thus, RET-independent signaling by GDNF has an apparent role in the ureteric branching, but may be less significant in the primary bud formation.

[4] = ligand 100 ng/ml, 3-D collagen gel

B1: GDNF: recombinant glial cell line-derived neurotrophic factor from Cephalon Inc. (baculovirus-infected insect cells) or R&D Systems, Inc. (mouse myeloma NSO) (protein, UniProt P39905 78-211, looked up)
Glial cell line-derived …: SPDKQMAVLPRRERNRQAAAANPENSRGKGRRGQRGKNRGCVLTAIHLNVTDLGLGYETKEELIFRYCSGSCDAAETTYDKILKNLSRNRRLVSDKVGQACCRPIAFDDDLSFLDDNLVYHILRKHSAKRCGCI
- MET activation (MET): takes place
- GDNF concentration that saturated Src phosphorylation (Src-type kinases): 0.1 pg/mL
- time at which activation of Src-type kinases was observed (Src-type kinases): 15 min
- GDNF concentration at which RET phosphorylation reached saturation (RET): 10 ng/mL
- GDNF concentration at which RET phosphorylation was observed (RET): 0.1 pg/mL
- time to RET activation (RET; data not shown): ≥ 2 h
- branching tubule formation (wild-type MDCK cells; [4]): did not
- branching tubule formation (wild-type MDCK cells; mock-transfected MDCK cells used as controls): did not from branching tubules
- GDNF concentration that evoked tubulogenesis ([1]; cells expressing GFRα1 but not RET, dose-response FIG. 2C): 0.1 pg/ml
- branching tubule formation [1, 4]: formed branching tubules
- branching tubulogenesis ([1]; wild-type MDCK transduced with an adenovirus expressing GFRα1, data not shown): induced branching tubulogenesis
- GDNF concentration at which cells started to branch ([2]; cells co-expressing RET and GFRα1, dose-response FIG. 2C): 0.1 ng/mL
- branching tubule formation [2, 4]: formed branching tubules
- number of ureteric bud tips ([3]; ret +/− explants, GDNF 50 ng/ml, 4 days culture): increased the number of ureteric bud tips
- number of ureteric bud tips / ureteric branching ([3]; ret −/− explants, GDNF 50 ng/ml, 4 days culture): increased but not to the level seen in wild type kidneys; also recorded: significantly increased ureteric branching
- number of urogenital explants completely lacking a ureteric bud ([3]; ret −/− explants, with or without exogenous GDNF): remained the same
- number of ureteric bud tips ([3]; wild-type explants, GDNF 50 ng/ml, 4 days culture): increased the number of ureteric bud tips
